Experiments:
[1] = molecular target: T1, MBP-BAK 16-186, biotinylated (Avi tag, 6-histidine tag) (human), Q16611; assay: BLI; Octet RED96; biotinylated BCL-2 family proteins (25 nM) immobilised on streptavidin biosensors, designed protein in solution; 10 mM Hepes pH 7.4, 150 mM NaCl, 3 mM EDTA, 0.05% surfactant P20, 0.5% nonfat dry milk; titrations in triplicate, 1:1 binding model
T1 chain: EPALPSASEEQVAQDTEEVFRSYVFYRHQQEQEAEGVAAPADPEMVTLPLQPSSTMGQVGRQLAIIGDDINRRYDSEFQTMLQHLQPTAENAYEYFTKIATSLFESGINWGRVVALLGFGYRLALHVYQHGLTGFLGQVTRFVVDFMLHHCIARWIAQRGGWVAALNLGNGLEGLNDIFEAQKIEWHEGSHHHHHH

[2] = molecular target: MBP-BAX 1-166 C62S C126S, biotinylated (Avi tag, 6-histidine tag) (human), Q07812; assay: as above
Sequence of MBP-BAX 1-166 C62S C126S, biotinylated (Avi tag, 6-histidine tag) (human), Q07812 (Q07812 1-166 C62S/C126S): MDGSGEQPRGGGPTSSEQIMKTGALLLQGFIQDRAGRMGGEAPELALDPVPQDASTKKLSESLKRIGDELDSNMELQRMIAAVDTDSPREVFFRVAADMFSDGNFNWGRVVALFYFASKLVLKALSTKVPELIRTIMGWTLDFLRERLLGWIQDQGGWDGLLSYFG

Kd [1]: > 4000 nM
Kd [2]: 464 nM
Binder: SESQEDIIRNIARHLAQVGDSMDRSIPPGLVNGL (domain or fragment, modifications not checked) [MBP-fused BH3 peptide from BID]

Reference: article PMC12412652
